Test system: MKN45 and NCI-H446 tumor tissues
Test: Comprehensive RNA analysis of tumor tissues using nCounter
Format: in vivo, humanized NOG mice
Conditions: in combination with paclitaxel or capecitabine; compared to antibody-38 or the chemotherapeutic agent alone
Protocol: RNA was extracted from tumor samples after administration of paclitaxel, cisplatin, or capecitabine and antibody-38. Comprehensive RNA analysis using nCounter, tumor infiltrating lymphocyte (TIL) analysis, and pathological analysis were performed as follows.
The tumor samples were prepared as follows. The tumor samples when antibody-38 was used in combination with a chemotherapeutic agent in the humanized NOG mouse model were prepared by the procedure described below. 2.5 Gy of X ray was irradiated to NOG mice (In-Vivo Science Inc., Y). On the following day, 1×10^5 CD34-positive hematopoietic stem cells which are derived from umbilical cord blood were transplanted into the NOG mice by tail vein injection. After 16 to 20 weeks, each of human cancer cell lines (MKN45 and NCI-H446) was mixed with Matrigel™ Basement Membrane Matrix, and transplanted subcutaneously into the humanized NOG mice. The day of transplantation was defined as Day 0.
When tumor was established, the mice were separated into groups based on tumor size and body weight. Antibody-38 and the pharmaceutical agents for use in combination were administered according to the dose and dosing regimen described in Table 21. […]
RNA analysis was performed as follows. RNA was extracted (miRNeasy Mini Kit, QIAGEN) from the above-described tumor samples and the RNA concentrations were determined (NanoDrop, Thermo Fisher Scientific). […]

B1: antibody-38: anti-human CD3ε chain and anti-human GPC3 bispecific antibody; H chains SEQ ID NO: 385 and 402, common L chains SEQ ID NO: 410 (antibody)
heavy 1: QVQLVQSGAEVKKPGASVTVSCKASGYTFTDYEMHWIRQPPGEGLEWIGAIDGPTPDTAYSEKFKGRVTLTADKSTSTAYMELSSLTSEDTAVYYCTRFYSYTYWGQGTLVTVSSASTKGPSVFPLAPCSRSTSESTAALGCLVKDYFPEPVTVSWNSGALTSGVHTFPAVLQSSGLYSLSSVVTVPSSSLGTQTYTCNVDHKPSNTKVDKRVESKYGPPCPPCPAPEFRGGPKVFLFPPKPKDTLMISRTPEVTCVVVDVSQEDPEVQFNWYVDGVEVHNAKTKPREEQFASTYRVVSVLTVLHQDWLNGKEYKCKVSNKGLPSSIEKTISKAKGQPREPQVYTLPPSQEEMTKNQVSLTCLVKGFYPSDIAVEWESNGQPENNYKTTPPVLDSDGSFFLYSKLTVDKSRWQEGNVFSCSVMHEALHNHYTQESLSLSP
heavy 2: QVQLVESGGGVVQPGGSLRLSCAASGFTFSNAWMHWVRQAPGKGLEWVAQIKDKSQNYATYVAESVKGRFTISRADSKNSIYLQMNSLKTEDTAVYYCRYVHYAAGYGVDIWGQGTTVTVSSASTKGPSVFPLAPCSRSTSESTAALGCLVKDYFPEPVTVSWNSGALTSGVHTFPAVLQSSGLYSLSSVVTVPSSSLGTKTYTCNVDHKPSNTKVDKRVESKYGPPCPPCPAPEFRGGPKVFLFPPKPKDTLMISRTPEVTCVVVDVSQEDPEVQFNWYVDGVEVHNAKTKPREEQFASTYRVVSVLTVLHQDWLNGKEYKCKVSNKGLPSSIEKTISKAKGQPREPQVYTLPPSQKEMTKNQVSLTCLVKGFYPSDIAVEWESNGQPENNYKTTPPVLDSDGSFFLYSKLTVDKSRWQEGNVFSCSVMHEALHNHYTQKSLSLSP
light: DIVMTQSPLSLPVTPGEPASISCRSSQPLVHSNRNTYLHWYQQKPGQAPRLLIYKVSNRFSGVPDRFSGSGSGTDFTLKISRVEAEDVGVYYCGQGTQVPYTFGQGTKLEIKRTVAAPSVFIFPPSDEQLKSGTASVVCLLNNFYPREAKVQWKVDNALQSGNSQESVTEQDSKDSTYSLSSTLTLSKADYEKHKVYACEVTHQGLSSPVTKSFNRGEC
modifications: An artificially generated sequence
  expressions of genes involved in the progress of cell cycle: suppressed
  expressions of immune cell markers, chemokines, cytokines, genes involved in cell death, genes involved in cell cycle regulation: increased

— patent US20250066503A1, “CELL INJURY INDUCING THERAPEUTIC DRUG FOR USE IN CANCER THERAPY” (CHUGAI SEIYAKU KABUSHIKI KAISHA, priority 2016, published 2025)
